{
  "source": "patent US20170281764A1",
  "about": "(JN BIOSCIENCES, published 2017)",
  "binders": {"B1": {"name": "HuTIG1-IgG1.AA (humanized IgG1/kappa form of TIG1, L234A/L235A) (antibody)", "heavy": "not shown", "light": "DIQMTQSPSSLSASVGDRVTITCRASKSISKYLAWYQQKPGKAPKLLIYSGSTLQSGVPSRFSGSGSGTDFTLTISSLQPEDFATYYCQQHNEYPWTFGGGTKVEIKRTVAAPSVFIFPPSDEQLKSGTASVVCLLNNFYPREAKVQWKVDNALQSGNSQESVTEQDSKDSTYSLSSTLTLSKADYEKHKVYACEVTHQGLSSPVTKSFNRGEC", "notes": "Mature full chains; also called humanized TIG1"}},
  "key": {"[1]": {"target": "T1, extracellular region of human TIGIT fused to the Fc region of human immunoglobulin gamma-1 chain (hTIGIT-Fc) (human)", "T1 construct": "also called human TIGIT-Fc fusion protein; wild-type TIGIT-Fc", "assay": "ELISA, plate coated with 5 µg/ml hTIGIT-Fc", "method": "Binding of HuTIG1-IgG1.AA to human TIGIT was examined by ELISA. An ELISA plate was coated with 5 μg/ml hTIGIT-Fc in PBS (100 μl/well) at 4° C. overnight, washed with Wash Buffer (PBS containing 0.05% Tween 20), and blocked with 200 μl/well of SuperBlock Blocking Buffer (Thermo Fisher Scientific). After washing wells with Wash Buffer, HuTIG1-IgG1.AA, starting at 2.5 μg/ml and serial 2-fold dilutions in SuperBlock Blocking Buffer, was added for binding to plate-bound human TIGIT. After incubating the ELISA plate for 1 hr at room temperature and washing with Wash Buffer, bound antibodies were detected with 100 μl/well of HRP-conjugated goat anti-human kappa chain polyclonal antibody (Southern Biotech), 1/2,000-diluted in ELISA Buffer. After incubating for 30 min at room temperature and washing with Wash Buffer, color development was initiated with 100 μl/well of ABTS substrate and stopped with 100 μl/well of 2% oxalic acid. Absorbance was read at 405 nm. […] The half maximal effective concentration (EC₅₀) of HuTIG1-IgG1.AA for binding to TIGIT was 65 ng/ml."}, "[2]": {"target": "T2, extracellular region of human TIGIT fused to FLAG and GPI (hTIGIT-GPI), on the surface of NS0 cells (human)", "T2 construct": "The GPI signal is processed when the anchor is attached; also called NS0-hTIGIT cells", "T2 chain": "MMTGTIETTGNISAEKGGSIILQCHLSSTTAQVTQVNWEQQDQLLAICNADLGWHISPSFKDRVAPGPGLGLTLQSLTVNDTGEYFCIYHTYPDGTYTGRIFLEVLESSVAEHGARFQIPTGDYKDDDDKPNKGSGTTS", "assay": "flow cytometry, competition with hCD155-Fc-FITC (125 ng/ml) for NS0-hTIGIT cells", "method": "The activity of HuTIG1-IgG1.AA to block the interaction between human TIGIT and human CD155 was analyzed by flow cytometry using NS0-hTIGIT cells. […] After washing with FACS Buffer, NS0-hTIGIT cells were subjected to flow cytometry using a FACScan flow cytometer (BD Biosciences, San Jose, Calif.). To examine the binding of hCD155-Fc-FITC on the cells, MCF was obtained at each antibody concentration. […] The half maximal inhibitory concentration (IC₅₀) of HuTIG1-IgG1.AA to block the TIGIT-CD155 interaction was 67 ng/ml."}},
  "data": [
    {"binder": "B1", "values": [
      {"measurement": "EC50", "setting": "[1]", "value": 0.065, "unit": "µg/mL"},
      {"measurement": "IC50", "setting": "[2]", "value": 0.067, "unit": "µg/mL"}
    ]}
  ]
}
